Experimental data as given in the supplement of paper PMC10724198.
± gives the standard deviation of the averaged measurements.

What was measured:
Saccharomyces cerevisiae [1] = assay: protein stability index of tFT-peptide fusion (C-terminal peptide) (PSI (0-1 scale)); higher = more stable (slower turnover)
Description: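 MPS profiling in S. cerevisiae of the tFT-X12 degron library: putative degron peptides plus stable controls, 12 aa, fused to the C-terminus of a sfGFP-mCherry timer. Cells are FACS-sorted into 8 mCherry/sfGFP bins and deep-sequenced. PSI runs from 0 (unstable) to 1 (stable). Backgrounds are wild type, das1Δ and doa10Δ at 30 °C, and wild type, das1Δ, cdc34-1 and cdc53-1 at 37 °C; 2-3 technical replicates each.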

Saccharomyces cerevisiae [2] = assay: as above; conditions: genetic background: wild type; temperature: 30 C
[3] = genetic background: cdc34-1, temperature: 37 C
[4] = genetic background: cdc53-1, temperature: 37 C
[5] = genetic background: das1 deletion, temperature: 30 C
[6] = genetic background: das1 deletion, temperature: 37 C
[7] = genetic background: doa10 deletion, temperature: 30 C
[8] = genetic background: wild type, temperature: 30 C
[9] = genetic background: wild type, temperature: 37 C
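Also: PSI is a weighted mean of sequencing reads over stability bins, variants kept only with over 10 reads, mCherry proximal and sfGFP distal, peptide attached via GGGS linker.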

Sequence	protein stability index (Saccharomyces cerevisiae [2])	also measured
FFSFLFLLLFGA	–	protein stability index (Saccharomyces cerevisiae [1]; [3]): 0.566 ± 0.016; protein stability index (Saccharomyces cerevisiae [1]; [4]): 0.643 ± 0.0069; protein stability index (Saccharomyces cerevisiae [1]; [5]): 0.556 ± 0.018; protein stability index (Saccharomyces cerevisiae [1]; [6]): 0.619 ± 0.07; protein stability index (Saccharomyces cerevisiae [1]; [7]): 0.555 ± 0.016; protein stability index (Saccharomyces cerevisiae [1]; [8]): 0.5673 ± 0.0056; protein stability index (Saccharomyces cerevisiae [1]; [9]): 0.617 ± 0.046
FPPCSFLGFLVF	–	protein stability index (Saccharomyces cerevisiae [1]; [3]): 0.69 ± 0.027; protein stability index (Saccharomyces cerevisiae [1]; [4]): 0.768 ± 0.014; protein stability index (Saccharomyces cerevisiae [1]; [5]): 0.571 ± 0.023; protein stability index (Saccharomyces cerevisiae [1]; [6]): 0.73 ± 0.014; protein stability index (Saccharomyces cerevisiae [1]; [7]): 0.556 ± 0.018; protein stability index (Saccharomyces cerevisiae [1]; [8]): 0.556 ± 0.014; protein stability index (Saccharomyces cerevisiae [1]; [9]): 0.688 ± 0.034
GAVGRWGWVSFV	–	protein stability index (Saccharomyces cerevisiae [1]; [3]): 0.699 ± 0.038; protein stability index (Saccharomyces cerevisiae [1]; [4]): 0.7732 ± 0.0059; protein stability index (Saccharomyces cerevisiae [1]; [5]): 0.653 ± 0.014; protein stability index (Saccharomyces cerevisiae [1]; [6]): 0.7883 ± 0.0033; protein stability index (Saccharomyces cerevisiae [1]; [7]): 0.337 ± 0.0076; protein stability index (Saccharomyces cerevisiae [1]; [8]): 0.357 ± 0.025; protein stability index (Saccharomyces cerevisiae [1]; [9]): 0.638 ± 0.052
GFTIFFFFFFFV	–	protein stability index (Saccharomyces cerevisiae [1]; [3]): 0.227 ± 0.043; protein stability index (Saccharomyces cerevisiae [1]; [4]): 0.234 ± 0.018; protein stability index (Saccharomyces cerevisiae [1]; [5]): 0.193 ± 0.035; protein stability index (Saccharomyces cerevisiae [1]; [6]): 0.266 ± 0.045; protein stability index (Saccharomyces cerevisiae [1]; [7]): 0.287 ± 0.056; protein stability index (Saccharomyces cerevisiae [1]; [8]): 0.165 ± 0.0033; protein stability index (Saccharomyces cerevisiae [1]; [9]): 0.264 ± 0.0077
GPPPPPSLLLLC	–	protein stability index (Saccharomyces cerevisiae [1]; [3]): 0.6 ± 0.04; protein stability index (Saccharomyces cerevisiae [1]; [4]): 0.712 ± 0.0078; protein stability index (Saccharomyces cerevisiae [1]; [5]): 0.614 ± 0.025; protein stability index (Saccharomyces cerevisiae [1]; [6]): 0.721 ± 0.011; protein stability index (Saccharomyces cerevisiae [1]; [7]): 0.201 ± 0.0072; protein stability index (Saccharomyces cerevisiae [1]; [8]): 0.211 ± 0.015; protein stability index (Saccharomyces cerevisiae [1]; [9]): 0.345 ± 0.02
GVAVVWVGLGVT	–	protein stability index (Saccharomyces cerevisiae [1]; [3]): 0.325 ± 0.011; protein stability index (Saccharomyces cerevisiae [1]; [4]): 0.445 ± 0.043; protein stability index (Saccharomyces cerevisiae [1]; [5]): 0.27 ± 0.018; protein stability index (Saccharomyces cerevisiae [1]; [6]): 0.474 ± 0.0068; protein stability index (Saccharomyces cerevisiae [1]; [7]): 0.227 ± 0.013; protein stability index (Saccharomyces cerevisiae [1]; [8]): 0.262 ± 0.017; protein stability index (Saccharomyces cerevisiae [1]; [9]): 0.4519 ± 0.0017
LDVGGRRGGEHC	–	protein stability index (Saccharomyces cerevisiae [1]; [3]): 0.598 ± 0.071; protein stability index (Saccharomyces cerevisiae [1]; [4]): 0.646 ± 0.096; protein stability index (Saccharomyces cerevisiae [1]; [5]): 0.554 ± 0.024; protein stability index (Saccharomyces cerevisiae [1]; [6]): 0.6665 ± 0.0011; protein stability index (Saccharomyces cerevisiae [1]; [7]): 0.583 ± 0.092; protein stability index (Saccharomyces cerevisiae [1]; [8]): 0.594 ± 0.077; protein stability index (Saccharomyces cerevisiae [1]; [9]): 0.598 ± 0.011
LFVLVLLCWMLT	–	protein stability index (Saccharomyces cerevisiae [1]; [3]): 0.347 ± 0.038; protein stability index (Saccharomyces cerevisiae [1]; [4]): 0.462 ± 0.014; protein stability index (Saccharomyces cerevisiae [1]; [5]): 0.373 ± 0.029; protein stability index (Saccharomyces cerevisiae [1]; [6]): 0.42739 ± 0.00025; protein stability index (Saccharomyces cerevisiae [1]; [7]): 0.357 ± 0.012; protein stability index (Saccharomyces cerevisiae [1]; [8]): 0.34 ± 0.013; protein stability index (Saccharomyces cerevisiae [1]; [9]): 0.434 ± 0.03
LWGVGFLFVLVG	–	protein stability index (Saccharomyces cerevisiae [1]; [3]): 0.1858 ± 0.0014; protein stability index (Saccharomyces cerevisiae [1]; [4]): 0.268 ± 0.024; protein stability index (Saccharomyces cerevisiae [1]; [5]): 0.229 ± 0.036; protein stability index (Saccharomyces cerevisiae [1]; [6]): 0.403 ± 0.039; protein stability index (Saccharomyces cerevisiae [1]; [7]): 0.105 ± 0.0094; protein stability index (Saccharomyces cerevisiae [1]; [8]): 0.131 ± 0.017; protein stability index (Saccharomyces cerevisiae [1]; [9]): 0.183 ± 0.014
PHSMRTTTIMCS	–	protein stability index (Saccharomyces cerevisiae [1]; [3]): 0.357 ± 0.034; protein stability index (Saccharomyces cerevisiae [1]; [4]): 0.444 ± 0.021; protein stability index (Saccharomyces cerevisiae [1]; [5]): 0.296 ± 0.031; protein stability index (Saccharomyces cerevisiae [1]; [6]): 0.516 ± 0.0075; protein stability index (Saccharomyces cerevisiae [1]; [7]): 0.214 ± 0.0032; protein stability index (Saccharomyces cerevisiae [1]; [8]): 0.243 ± 0.056; protein stability index (Saccharomyces cerevisiae [1]; [9]): 0.436 ± 0.0045
RPPPAANFTRSS	–	protein stability index (Saccharomyces cerevisiae [1]; [3]): 0.655 ± 0.022; protein stability index (Saccharomyces cerevisiae [1]; [4]): 0.688 ± 0.024; protein stability index (Saccharomyces cerevisiae [1]; [5]): 0.665 ± 0.016; protein stability index (Saccharomyces cerevisiae [1]; [6]): 0.698 ± 0.012; protein stability index (Saccharomyces cerevisiae [1]; [7]): 0.665 ± 0.018; protein stability index (Saccharomyces cerevisiae [1]; [8]): 0.661 ± 0.0078; protein stability index (Saccharomyces cerevisiae [1]; [9]): 0.679 ± 0.012
WLVGGGTVAHSP	0.77 ± 0.088	–
WLVPSGTRTGRV	0.678 ± 0.028	–
WLWYLSTRHSKL	0.7871 ± 0.0037	–
WPCVGWTLCSCS	0.541 ± 0.042	–
WPFHADPPPPVP	0.6969 ± 0.0026	–
WPGRAVCLGAGW	0.734 ± 0.056	–
WPSHVTLPYGLV	0.6545 ± 0.0057	–
WQDTASNSNTTI	0.719 ± 0.024	–
WRCSAITASEYL	0.686 ± 0.032	–
WRDGSLKIKCML	0.756 ± 0.21	–
WRLGGGMVCVAS	0.566 ± 0.042	–

Sequence	protein stability index (Saccharomyces cerevisiae [2])	also measured
WRNTGSTYYMKV	0.723 ± 0.015	–
WRNVEITSGSPH	0.672 ± 0.063	–
WRRCSGGGVGSP	0.655 ± 0.084	–
WRRGMMGGLAIW	0.698 ± 0.012	–
WSGNYSNITRYI	0.66 ± 0.019	–
WSWTNDAFFGVV	0.681 ± 0.068	–
WTLSGHKHIPED	0.736 ± 0.013	–
WVAGPWLGRVQE	0.733 ± 0.0083	–
WVLFRNKSVAAS	0.527 ± 0.012	–
WVNGFCKKGSGH	0.713 ± 0.015	–
WVRLITCVRCSR	0.594 ± 0.048	–
WVTLGMGGECMR	0.818 ± 0.14	–
WWGGGGGMQGVR	0.674 ± 0.0096	–
WWGLGGREPGGS	0.711 ± 0.072	–
WYCRWWGVRGGH	0.672 ± 0.1	–
WYFSSPPPFFSP	0.766 ± 0.058	–
WYGSYPLTLESY	0.613 ± 0.013	–
WYMKFYNKKMKE	0.702 ± 0.04	–
YALPPPPHPLSF	0.591 ± 0.018	–
YASLPQSRPLSP	0.651 ± 0.013	–
YCSIVRSLGSPL	0.698 ± 0.065	–
YDLLLLLSLSRP	0.644 ± 0.012	–

Sequence	protein stability index (Saccharomyces cerevisiae [2])	also measured
YFGGMGARGRER	0.687 ± 0.0081	–
YFRYGLELVTFG	0.5004 ± 0.0013	–
YFSSSPVFPPHL	0.667 ± 0.16	–
YFWFSRGLSVFF	0.666 ± 0.0073	–
YGEGSPPCMPEL	0.709 ± 0.017	–
YGFFCFLPVFRG	0.661 ± 0.054	–
YGKELRRCKWVF	0.581 ± 0.0072	–
YGNSFLVRPPGD	0.712 ± 0.05	–
YGVRCSRINRSG	0.678 ± 0.059	–
YGVRGFKGYYGG	0.735 ± 0.0087	–
YHECWRTFTLCV	0.532 ± 0.007	–
YHSSHTGEFLFL	0.658 ± 0.053	–
YIIVSQRENRRQ	0.758 ± 0.095	–
YINQWLNVKHGD	0.635 ± 0.058	–
YISLQKGVMNEL	0.728 ± 0.008	–
YIVARMVRAVIP	0.741 ± 0.035	–
YKGNVRNPTLHA	0.655 ± 0.05	–
YKKKKEEKNKKN	0.583 ± 0.046	–
YKKKKKKKNNKK	0.662 ± 0.043	–
YKNKKKKKNNKK	0.661 ± 0.019	–
YLADPSPSIPIL	0.649 ± 0.02	–
YLDVWTGLSCQD	0.683 ± 0.11	–

Sequence	protein stability index (Saccharomyces cerevisiae [2])	also measured
YLGRDYYVVLWG	0.7506 ± 0.0045	–
YLPRHPLPPFPV	0.681 ± 0.14	–
YLPWFADLHPGV	0.737 ± 0.073	–
YLSFDKSLLSQI	0.662 ± 0.029	–
YLSGHLGCRVRV	0.651 ± 0.067	–
YLSVPVGPAMAL	0.643 ± 0.1	–
YMAGGQCDRLPG	0.677 ± 0.055	–
YNRQVDFECHKF	0.698 ± 0.044	–
YNVRNVSVHQLG	0.644 ± 0.015	–
YPALCSRFFAPS	0.711 ± 0.039	–
YPGSCFLDTGIW	0.6666 ± 0.0062	–
YPNENFALLTEH	0.653 ± 0.046	–
YQGSFGLCRLML	0.808 ± 0.034	–
YRARTADRPRDQ	0.729 ± 0.039	–
YRIMRRKEKEER	0.669 ± 0.026	–
YRLAPPPHPPPP	0.576 ± 0.021	–
YRLVASSHLIFF	0.661 ± 0.027	–
YRQAAIKNIKRK	0.683 ± 0.014	–
YRQIIPSFTLGL	0.715 ± 0.036	–
YRSPRSSSGSSF	0.67 ± 0.041	–
YSDNIHIEFEDC	0.737 ± 0.068	–
YSGYRASLVFEI	0.648 ± 0.099	–

Sequence	protein stability index (Saccharomyces cerevisiae [2])	also measured
YSIIYATGMRIL	0.626 ± 0.07	–
YSLETGIFVFHR	0.7027 ± 0.0068	–
YSLPPAPQPLPP	0.772 ± 0.092	–
YSPFGKRLLPPC	0.702 ± 0.057	–
YSTFIPYSPCTA	0.644 ± 0.013	–
YSVDGTGVGLWV	0.717 ± 0.016	–
YSWGVLSWLSFG	0.648 ± 0.0074	–
YTPEVSVFFFRT	0.6233 ± 0.0014	–
YTSFGSSLIPTT	0.652 ± 0.074	–
YTSPRSTGPSVG	0.732 ± 0.012	–
YTTFNLSQTLNG	0.674 ± 0.023	–
YTWVDKNDRTKR	0.736 ± 0.11	–
YWEVYAGLSLWV	0.63 ± 0.0048	–
YWGGWCGGWEIG	0.73 ± 0.034	–
YYAFITERYRHN	0.6069 ± 0.0046	–
YYCLRVRTINRR	0.703 ± 0.011	–
YYLCHIEEFLSS	0.622 ± 0.072	–
YYLPRPPRPTVL	0.623 ± 0.11	–
YYSTQTQATYRH	0.6773 ± 0.0025	–
